Molecular target: Rpc31, endogenous in hmt1Δ yeast cells (hypomethylated) (S. cerevisiae (endogenous in yeast cells)) (UniProt P17890)
Test: co-IP; α-Rpc31 antibody cross-linked to magnetic beads; yeast lysates at 10 mg/ml, 2 h at 4°C; three washes with PBS, 0.5% Triton X-100, 2.5 mM MgCl2; immunoblot; cells before and after treatment with CPZ for 1 h

UniProt P17890, sequence (P17890 whole entry, stated change not applied): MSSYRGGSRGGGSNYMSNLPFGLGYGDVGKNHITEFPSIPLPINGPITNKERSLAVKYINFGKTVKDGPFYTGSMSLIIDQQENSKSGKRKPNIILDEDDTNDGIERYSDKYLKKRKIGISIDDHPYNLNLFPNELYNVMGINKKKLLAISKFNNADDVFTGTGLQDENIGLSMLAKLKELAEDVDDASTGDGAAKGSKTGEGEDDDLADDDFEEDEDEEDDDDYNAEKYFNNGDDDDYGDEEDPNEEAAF

Question: “Myc-tagged Maf1-7SA (from UniProt P41910 1-395) (natural protein)” was tested. Which association relative to that in WT cells, after CPZ (% lower than in WT cells) did it give?
Answer: 40

— PMC6549136
